# Measured values from the RNAGym collection of RNA variant scans (doi:10.1073/pnas.2313332121).
# B1: TPR t1 (parent)
# chain: GACCAAUCUGCCCUCAGAGCUCGAGAACAUCUUCGGAUGCAGAGGAGGCAGGCUUCGGUGGCGCGAUAGCGCCAACGUCCUCAACCUCCAAUGCAUCCCACCACAUGAUGAUGCCUGAAGAGCCUUGGUUUUUUG
# Variants of: B1
# Experiment: polymerase ribozyme fitness, log enrichment relative to wild type (log ratio); higher = more active; in vitro selection for triplet polymerase activity
# Outline: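 Each subunit of a heterodimeric triplet polymerase ribozyme was represented by a PCR-built, transcribed mutant library that underwent triplicate single-round in vitro selection with frozen incubation at −7 °C. Extended constructs were recovered by gel excision, streptavidin-bead capture and RT-PCR, and Illumina sequencing of input and output libraries kept genotypes with ≥10 input reads and ≥1 read per output. Fitness is the logarithm of genotype enrichment relative to wild-type enrichment, from inverse-variance-weighted replicate averages, with a logarithm base of 2.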
row,Variant,polymerase ribozyme fitness (log ratio)
1,G60A C80A C88A,-3.61
2,G57A A84C,-1.76
3,U59A C114A U130A,-2.17
4,G57U G77C U130G,-2.56
5,U59A U81A A119U,-0.551
6,G61A C124G,1.77
7,U59C A84G,-1.4
8,G58C C70U A103U,-6.42
9,U59C C124A,2.03
10,G60A C99A A103C A111C,-6.52
11,G60C A103U,-5.01
12,G60C G110C,-4.39
13,G57A U78C,-1.27
14,G60A C79A A84U,-2.32
15,G60C C89U C123G,1.06
16,U59C G120A G135U,-0.46
17,G61A A75U U96G A121G U129C G135U,0.938
18,G61A C88G C98G C123G,-6.3
19,G57C G110U G120U,-4.33
20,G60C C86U U106G G120A,-2.2
21,G60U C82G,-1.12
22,G58C G60U A118G,-0.24
23,G60A A74U U92A C104U U133A,-2.03
24,G60C G117C A121C,-4.85

row,Variant,polymerase ribozyme fitness (log ratio)
1,G60U A74U G110U G127A,-4.43
2,G61A C102U,-1.04
3,G60U A118C,-2.43
4,G60U A118U,-0.552
5,G61A C98U,-0.37
6,G61A C98A,-4.75
7,G57A G61A C104U,-0.114
8,G60U C62G A83C,-0.657
9,G60A U131G,0.0187
10,G60C C86U U106A,-0.567
11,G61A A121G,1.21
12,G57A C104A,-2.92
13,G57A C104U,-0.961
14,G60C C104A,-2.18
15,G61A C88U,-0.64
16,G57C G61A G120A,0.501
17,G61A C73A G127A,-1.74
18,G57U C62G A121G U130A,-0.352
19,G57A G69U,-0.426
20,G61A C88G G120A A121C G135U,-0.364
21,G58C U78G A90C A118U G127C,-2.89
22,G60U C79G C114U,-4.12
23,G61A A83G G113A U130G,-1.85
24,G61A C104A G110A,-3.83

row,Variant,polymerase ribozyme fitness (log ratio)
1,U59A C82G A119U,-0.921
2,G57A A103G,-4.05
3,C56U U133A,-0.575
4,U59C C102U C114G,-5.47
5,G60A C94A G128C,-3.09
6,G61A G69C U116C,-4.59
7,G57C G135U,-0.876
8,G57U G58C,-1.12
9,G58A G71U C79A,-1.79
10,G60A U116C,-0.935
11,G57A C99U,-4.88
12,G57C C62U G135U,-1.15
13,G60C U96A C101A A119U,-4.66
14,G58A G60A,-0.506
15,U59G U130G,-0.605
16,G61A G113C G128U,-4.09
17,G60C G93U C114A,-2.51
18,U59C A108G,-2.19
19,G57U A91G C114A U131A,-3.11
20,G60U A83C,0.15
21,G60U A83U,-0.0168
22,G60A C94U,-0.196
23,G60A C80U,-1.64
24,G58C G77A C97U,0.13

row,Variant,polymerase ribozyme fitness (log ratio)
1,G60C C123G,1.61
2,G60U C115A U125G,0.39
3,U59A G63A,-1.13
4,G57U U78G C114U A118U,-3.81
5,G58C C86A C89G,-4.05
6,G57C U87A,-1.1
7,G58C U96G C104U,-0.405
8,G60C A74U C88G,-2.91
9,G58A U125G,-0.683
10,G60A G122A U132C,-0.379
11,G60C A111G,-0.122
12,G57U C79U A108G,-2.71
13,G60U C85G C102A,-2.17
14,G57U G93A G110C,-5.09
15,U59A A74C C82A G93C,-1.19
16,G57A G122C C123A U130C,-1.47
17,G61A C72A,-0.462
18,G60C U130A,0.137
19,G60A G120C,0.892
20,G57U C62U U67C U87G C101G G113C,-6.27
21,G60A C88U G120A G122U,0.196
22,G57C C97U,-0.494
23,G57C C97G,-4.65
24,G57U A74G,-0.836

row,Variant,polymerase ribozyme fitness (log ratio)
1,U59A G128C,-2.5
2,G60C U112G U116C,-2.47
3,G60A C94U C124U,1.59
4,G60C C115A G120U,-0.0517
5,G61A C101A U116A G128C,-6.04
6,U59A G63C C82A G127A,-2.72
7,U59A G93U,-0.878
8,G60A C99U G127A,-4.87
9,U59C U96C,-0.447
10,G57A U59C G120C U132A,-0.265
11,G60U U78C,-0.915
12,G61A A100C,-0.823
13,G60U A75U U87C,0.354
14,G58U C73U,-0.0574
15,G58C G69A C123A,-3.42
16,U59A C114A,-1.7
17,U59G C104A A105U G110A,-5.5
18,G60A U96C A118G,-0.126
19,G57A C73G U87G U125A,-1.37
20,G60U C101A,-0.256
21,G58C G63C,-2.61
22,U59A C104U,0.251
23,G58A C62A,-2.66
24,G60U U87G U129G,-0.951

row,Variant,polymerase ribozyme fitness (log ratio)
1,G57C G58A C114U,-3.53
2,U59G G77U G117A,-1.91
3,G58A U129C,-0.222
4,G61A C80A,-3.47
5,U59C A91C G120C U133C G135U,-0.803
6,G58U G60A U87A A103U,-5.31
7,G60C G61C,-1.72
8,G61A C64U,-1.86
9,U59G C82U G93U U96C C123U,-0.453
10,G60A A100U,-0.621
11,G60U G69A,-4.86
12,G58C G71C C115A A118U,-1.75
13,G60C C88A U112A,-0.182
14,G61A C86U U116A G117A,-2.15
15,U59C C64U C82G C94U,-1.7
16,U59A C88U A118U,0.167
17,G58C C101G C114A,-3.77
18,G58A C114G,-3.37
19,G60A C82A A95G,0.0608
20,U59A C89A,-1.85
21,G57U C70U C76G U131C,-0.726
22,G58C C73G C80U C102A G113A,-5.77
23,G61A A111U G128C U133G,-4.57
24,G58A U59C,-0.583

row,Variant,polymerase ribozyme fitness (log ratio)
1,G57U C123U,0.41
2,U59A C89U C124A U125A,1.78
3,U59C U106G U112G,-2.31
4,G58U A103C A121G,-4.29
5,G60A C104U,0.164
6,G60A G117U,-1.75
7,G60A G117C,-2.42
8,G60U U112A,1.6
9,G60A C101U,-0.265
10,U59A A66C C124A,0.00699
11,G60C U129C,-0.277
12,G60C G61A C101A C123A U129A,-4.67
13,U59A C82A G93C,-0.829
14,G58A A111C A119C G120U G127U,-1.16
15,G60C C94A C102U U106A,-6.72
16,G60A C115A,-0.714
17,G60A C115G,-1.65
18,G57A U87C,-1.14
19,G57C C115A,0.0474
20,G60C A83C C115U,-1.05
21,G58C C124A,1.82
22,G57C C88U A95U,-1.98
23,G60U A83C G117A,-2.26
